Test results published in patent US20230374148A1, “BINDING MOLECULES THAT MULTIMERISE CD45” (UCB BIOPHARMA SRL, priority 2020, published 2023).

Tests used:
[1] = biological target: T1, CD45 domains 1-4 of the extracellular domain (UniProtKB P08575, residues 225-573) with C-terminal TEV cleavage site and 10-His tag (human); experiment: mass of the peaks seen in the mixture of CD45 ECD and 4133-6294 BYbe in solution; theoretical mass 138 kDa
[2] = biological target: T2, human CD45 on cells (PBMC, whole blood cells, macrophages, leukaemia and lymphoma cell lines) (human, UniProt P08575 26-1306); experiment: cell-based or functional assay
T2 sequence: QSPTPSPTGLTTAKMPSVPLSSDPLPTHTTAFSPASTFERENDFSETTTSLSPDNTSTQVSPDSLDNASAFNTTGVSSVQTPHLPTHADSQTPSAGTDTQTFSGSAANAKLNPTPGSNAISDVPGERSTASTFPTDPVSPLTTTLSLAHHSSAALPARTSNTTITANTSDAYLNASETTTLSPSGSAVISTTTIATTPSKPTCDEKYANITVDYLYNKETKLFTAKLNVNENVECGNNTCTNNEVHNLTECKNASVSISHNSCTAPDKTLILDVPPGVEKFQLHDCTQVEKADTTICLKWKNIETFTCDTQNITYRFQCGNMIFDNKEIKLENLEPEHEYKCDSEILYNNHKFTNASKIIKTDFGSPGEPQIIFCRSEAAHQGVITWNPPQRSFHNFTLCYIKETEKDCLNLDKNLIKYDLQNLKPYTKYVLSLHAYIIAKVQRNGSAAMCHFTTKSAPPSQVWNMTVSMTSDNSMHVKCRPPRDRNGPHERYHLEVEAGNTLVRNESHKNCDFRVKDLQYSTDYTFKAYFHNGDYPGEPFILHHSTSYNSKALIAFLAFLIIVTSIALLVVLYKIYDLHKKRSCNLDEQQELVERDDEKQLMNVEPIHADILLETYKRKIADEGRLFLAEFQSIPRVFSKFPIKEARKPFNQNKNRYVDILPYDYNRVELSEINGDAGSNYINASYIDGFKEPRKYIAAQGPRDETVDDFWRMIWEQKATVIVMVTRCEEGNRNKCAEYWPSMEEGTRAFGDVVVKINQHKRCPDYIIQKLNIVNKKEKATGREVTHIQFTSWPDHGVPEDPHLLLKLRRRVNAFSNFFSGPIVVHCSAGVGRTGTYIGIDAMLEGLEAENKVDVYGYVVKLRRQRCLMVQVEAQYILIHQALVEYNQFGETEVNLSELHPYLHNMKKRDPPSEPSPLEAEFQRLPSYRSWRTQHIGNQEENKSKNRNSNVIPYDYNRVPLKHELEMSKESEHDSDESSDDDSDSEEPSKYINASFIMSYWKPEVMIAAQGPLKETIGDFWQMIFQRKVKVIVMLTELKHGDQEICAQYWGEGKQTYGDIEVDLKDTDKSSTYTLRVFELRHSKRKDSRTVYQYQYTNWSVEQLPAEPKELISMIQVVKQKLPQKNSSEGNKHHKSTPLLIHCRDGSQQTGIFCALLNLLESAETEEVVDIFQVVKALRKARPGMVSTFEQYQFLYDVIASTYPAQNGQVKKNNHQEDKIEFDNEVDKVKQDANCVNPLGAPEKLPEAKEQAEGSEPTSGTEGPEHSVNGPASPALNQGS

[3] = biological target: T1, CD45 domains 1-4 of the extracellular domain; experiment: mass of the peaks seen in the mixture of CD45 ECD and 4133-6294 BYbe in solution; theoretical mass 414 kDa
[4] = biological target: T1, CD45 domains 1-4 of the extracellular domain; experiment: sedimentation peaks of the mixture of CD45 ECD and 4133-6294 BYbe; stoichiometry assigned from modelled S values
[5] = biological target: T1, CD45 domains 1-4 of the extracellular domain; experiment: sedimentation velocity analytical ultracentrifugation, molar 1:1 mixture of CD45 ECD and BYbe
[6] = biological target: T1, CD45 domains 1-4 of the extracellular domain; experiment: mass of the peaks seen in the mixture of CD45 ECD and 4133-6294 BYbe in solution; theoretical mass 276 kDa
[7] = biological target: T2, human CD45 on cells (PBMC, whole blood …); experiment: cell-based or functional assay; remark: listed apart in the source
[8] = biological target: T1, CD45 domains 1-4 of the extracellular domain; experiment: mass photometry of the mixture of CD45 ECD and 4133-6294 BYbe, not pre-incubated [C]
[9] = biological target: T2, human CD45 on cells (PBMC, whole blood …); experiment: cell-based or functional assay; remark: listed apart in the source
[10] = biological target: T2, human CD45 on cells (PBMC, whole blood …); experiment: cell-based or functional assay; remark: listed apart in the source
[11] = biological target: T1, CD45 domains 1-4 of the extracellular domain; experiment: mass of the peaks seen in the mixture of CD45 ECD and 4133-6294 BYbe in solution; theoretical mass 552 kDa

B1: 4133-6294 BYbe (bispecific antibody)
heavy: QEQLVESGGGLVQPEGSLTLTCTASGFSFSGNYYMCWVRQAPGKGLEWIGCLYTGSSGSTYYASWAKGRFTISKTSSTTVTLQMTSLTAADTATYFCARDLGYEIDGYGGLWGQGTLVTVSSGQPKAPSVFPLAPCCGDTPSSTVTLGCLVKGYLPEPVTVTWNSGTLTNGVRTFPSVRQSSGLYSLSSVVSVTSSSQPVTCNVAHPATNTKVDKTVAPSTCSKPGGGGSGGGGSEVQLVESGAELARPGASVKMSCKASGYTFTSYTMHWVKQRPGQCLEWIGYINPSSGYTEYNQKFKDKTTLTADKSSSTAYLQLSSLTSEDSAVYYCARVGDGFYPSWLAYWGQGTLVTVSSGGGGSGGGGSGGGGSGGGGSDIQMTQSPKFLLVSAGDRVTITCKASQSVRNDVAWYQQKPGQSPKLLIFYASKRYTGVPDRFTGSGYGTDFTFTISTVQAEDLAVYFCQQDYSSPTTFGCGTKLEIK
light: AQVLTQTPSPVSAVVGGTVSISCQASQSVYNNNNLSWYQQKPGQPPKLLIYDASKLASGVPSRFKGSGSGTQFTLTISGVQCDDAATYYCLGGYYSSGWYFAFGGGTKVVVKRTPVAPTVLIFPPAADQVATGTVTIVCVANKYFPDVTVTWEVDGTTQTTGIENSKTPQNSADCTYNLSSTLTLTSTQYNSHKEYTCKVTQGTTSVVQSFNRGDC
With B1 the observed mass of the complex 1× (CD45 + BYbe) [1] was 136 kDa, the “EC50 of reduction of lymphocytes in PBMC, 24 h (UCB Cone-802)” value [2] was 0.15 nM and the “EC50 of reduction of lymphocytes in PBMC, 24 h (UCB Cone-811)” value [2] was 0.1 nM. For the same binder, the observed mass of the complex 3× (CD45 + BYbe) [3] was 415 kDa, the experimental S value of the complex CD45 1:1 BYbe [4] was 6.9 S and the experimental S value of the complex CD45 2:1 BYbe [4] was 7.15 S. For the same binder, the experimental S value of the complex CD45 2:2 BYbe [4] was 8.78 S, the experimental S value of the complex CD45 3:3 BYbe [4] was 10 S and the experimental S value of the complex CD45 4:3 BYbe [4] was 11.1 S. It also gave an experimental S value of the complex CD45 4:4 BYbe [4] of 13.3 S, a Percentage of area under the curve (CD45 1:1 BYbe complex) [5] of 12% and a Percentage of area under the curve (CD45 2:2 BYbe complex) [5] of 37.7%. The Percentage of area under the curve (CD45 3:3 BYbe complex) [5] was 35.7%, the Percentage of area under the curve (CD45 4:4 BYbe complex) [5] was 3.46% and the Percentage of area under the curve (unbound CD45 in the 1:1 mixture) [5] was 9.21%. The observed mass of the complex 2× (CD45 + BYbe) [6] was 274 kDa, the “EC50 of % cell reduction, CCRF-SB cells, 21 h” value [7] was 0.308 nM and the “EC50 of % cell reduction, Dakiki cells, 21 h” value [7] was 0.309 nM. The “EC50 of % cell reduction, Jurkat cells, 21 h” value [7] was 0.117 nM, the “EC50 of % cell reduction, MC116 cells, 21 h” value [7] was 5 pM and the “EC50 of % cell reduction, NU-DUL-1 cells, 21 h” value [7] was 0.497 nM. For the same binder, the “EC50 of % cell reduction, OCI-Ly3 cells, 21 h” value [7] was 0.349 nM, the “EC50 of % cell reduction, Raji cells, 21 h” value [7] was 0.397 nM and the “EC50 of % cell reduction, Ramos cells, 21 h” value [7] was 0.14 nM. The “EC50 of % cell reduction, SU-DHL-4 cells, 21 h” value [7] was 0.141 nM, the “EC50 of % cell reduction, SU-DHL-5 cells, 21 h” value [7] was 0.043 nM and the “EC50 of % cell reduction, SU-DHL-8 cells, 21 h” value [7] was 1.46 nM. The “EC50 of % cell reduction, THP-1 cells, 21 h” value [7] was 1.54 nM, the counts in the peak at 75 kDa (arrow from the BYbe schematic; unbound BYbe according to the text) [8] was 3830 counts and the counts in the peak at 136 kDa, complex marked (1x) [8] was 3060 counts. For the same binder, the counts in the peak at 274 kDa, complex marked (2x) [8] was 3510 counts, the counts in the peak at 415 kDa, complex marked (3x) [8] was 464 counts and the counts in the peak at 555 kDa, complex marked (4x) [8] was 137 counts. For the same binder, the percent of counts in the peak at 75 kDa (arrow from the BYbe schematic; unbound BYbe according to the text) [8] was 31%, the percent of counts in the peak at 136 kDa, complex marked (1x) [8] was 24% and the percent of counts in the peak at 274 kDa, complex marked (2x) [8] was 28%. For the same binder, the percent of counts in the peak at 415 kDa, complex marked (3x) [8] was 4%, the percent of counts in the peak at 555 kDa, complex marked (4x) [8] was 1% and the “EC50 of subset cell reduction, B cells in PBMC, 24 h” value [9] was 1.5 nM. For the same binder, the “EC50 of subset cell reduction, CD4+ Memory cells in PBMC, 24 h” value [9] was 0.222 nM, the “EC50 of subset cell reduction, CD4+ Naive cells in PBMC, 24 h” value [9] was 0.524 nM and the “EC50 of subset cell reduction, CD4+ cells in PBMC, 24 h” value [9] was 0.302 nM. The “EC50 of subset cell reduction, CD8+ cells in PBMC, 24 h” value [9] was 0.187 nM, the “EC50 of reduction, CD4+ cells in whole blood, 5 h, Donor 1” value [10] was 0.25 nM and the “EC50 of reduction, CD4+ cells in whole blood, 5 h, Donor 2” value [10] was 0.33 nM. For the same binder, the “EC50 of reduction, total lymphocytes in whole blood, 5 h, Donor 1” value [10] was 0.37 nM, the “EC50 of reduction, total lymphocytes in whole blood, 5 h, Donor 2” value [10] was 5.99 nM and the observed mass of the complex 4× (CD45 + BYbe) [11] was 555 kDa.
